The text below walks through data of article PMC8421216 (Nucleic Acids Research, 2020).

What is called Kd is the concentration at which binding is half-saturated. A low value points to a tighter complex. What is called stoichiometry N is the number of molecules, sites or subunits per partner or assembly.

Like-named read-outs stand apart in the source and are kept apart here.

Series [1] addresses T1, Pum-HD (Drosophila melanogaster, UniProt P25822 1093-1426).
T1 sequence: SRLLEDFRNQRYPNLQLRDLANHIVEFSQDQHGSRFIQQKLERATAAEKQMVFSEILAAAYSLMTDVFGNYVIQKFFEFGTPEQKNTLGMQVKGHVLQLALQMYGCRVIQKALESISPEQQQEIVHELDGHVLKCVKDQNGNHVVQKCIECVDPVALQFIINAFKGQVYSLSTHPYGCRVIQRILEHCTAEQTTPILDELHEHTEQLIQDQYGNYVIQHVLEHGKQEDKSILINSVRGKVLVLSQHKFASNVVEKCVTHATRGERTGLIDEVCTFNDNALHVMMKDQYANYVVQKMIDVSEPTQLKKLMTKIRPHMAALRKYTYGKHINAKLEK
The experiment in a line: ITC. In general terms: In ITC the heat of successive injections is recorded.

Series [2] concerns the target T2, Brat-NHL (Drosophila melanogaster, UniProt Q8MQJ9 756-1037).
T2 sequence: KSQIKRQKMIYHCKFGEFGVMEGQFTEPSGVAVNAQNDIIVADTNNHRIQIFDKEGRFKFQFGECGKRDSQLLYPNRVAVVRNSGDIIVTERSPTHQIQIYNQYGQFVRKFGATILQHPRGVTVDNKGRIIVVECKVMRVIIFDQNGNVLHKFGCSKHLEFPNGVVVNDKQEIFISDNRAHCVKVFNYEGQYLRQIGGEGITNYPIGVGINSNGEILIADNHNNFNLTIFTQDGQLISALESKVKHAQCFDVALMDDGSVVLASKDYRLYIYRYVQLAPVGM
Description: ITC.

Series [3] has as its target T2, Brat-NHL. Description: ITC. The source holds these as a separate data set.
The target in series [4] is T2, Brat-NHL. Description: ITC. The source holds these as a separate data set.
For series [5], the target named is T2, Brat-NHL. Description: ITC. The source holds these as a separate data set.
Series [6] concerns the target T1, Pum-HD. The experiment in a line: ITC. The source holds these as a separate data set.
In series [7] the target is T1, Pum-HD. The experiment in a line: ITC. This is another data set of the same source.
For series [8], the target named is T2, Brat-NHL. The experiment in a line: ITC. The source holds these as a separate data set.
Another series has as its target T3, Nanos-ZnF (Drosophila melanogaster, UniProt P25724 301-392).
T3 sequence: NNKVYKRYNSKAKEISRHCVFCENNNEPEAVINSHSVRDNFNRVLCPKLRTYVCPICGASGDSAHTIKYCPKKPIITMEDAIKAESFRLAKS
The experiment in a line: ITC.

Series [9] has as its target T4, Pum-HD;Brat-NHL;Nanos-ZnF (Drosophila melanogaster;Drosophila …, UniProt P25822;Q8MQJ9;P25724 1093-1426;756-1037;301-392, ||).
T4 sequence 1: T1 sequence
T4 sequence 2: T2 sequence
T4 sequence 3: T3 sequence
Description: SEC-MALLS, NMR, SAXS/SANS.

The target of series [10] is T2, Brat-NHL. Description: ITC. This is another data set of the same source.
The target in series [11] is T1, Pum-HD. Description: ITC. The source holds these as a separate data set.
Series [12] addresses T1, Pum-HD. Description: ITC. This is another data set of the same source.
Series [13] has as its target T5, HD domain of Pumilio (Pum-HD) (Drosophila, UniProt P25822 1093-1426).
T5 sequence (looked up): T1 sequence
Description: SEC + SEC-MALS.

For series [14], the target named is T1, Pum-HD. Description: ITC. This is another data set of the same source.
The target of series [15] is T1, Pum-HD. The experiment in a line: ITC. The source holds these as a separate data set.
In series [16] the target is T1, Pum-HD. The experiment in a line: ITC. The source holds these as a separate data set.

Regarding UUGUUG (ssRNA) [BoxA], in the series with Pum-HD [1], the binding result is given as “no binding”. Further, the dissociation constant (Kd) was found to be 1000 ± 300 nM in the series with Brat-NHL [2], 1100 ± 300 nM in the series with Brat-NHL [3] and 800 ± 200 nM with Brat-NHL [4].
On to UUGUUGUCGAAAAUUGUACAUAA (structured_RNA) [NRE2 (23-mer)], for which the Kd came to 900 nM with Brat-NHL [5]; 320 ± 100 nM in the series with Brat-NHL [2]; 370 ± 100 nM in the series with Brat-NHL [3]; 15 nM with Pum-HD [6]; 1200 ± 200 nM with Brat-NHL [4]; 2 nM with Pum-HD [7]. The Kd with Brat-NHL [8] was 200 nM; with Brat-NHL [10], 1400 nM. For the same molecule, the binding result is given as “no binding” with Nanos-ZnF and “binds” in [9].
For UCGAAAAUUGUACAUAA (ssRNA) [NRE2 minus BoxA], the Kd with Pum-HD [11] turned out to be 11 ± 0.6 nM; with Pum-HD [12], 10 ± 0.3 nM.

B1: ZnF domain of Nanos (Nanos-ZnF) (domain or fragment, Drosophila, UniProt P25724 301-392, looked up)
chain: T3 sequence
Take B1: the “stoichiometry N” value in series [13] is 1.
Regarding UUGUUGUC (ssRNA) [BoxAext], the binding result with Pum-HD [1] is on record as “no binding”.
UGUACAUA (ssRNA) [BoxB]: the Kd was 6.6 ± 4 nM with Pum-HD [14], 2 ± 2 nM in the series with Pum-HD [15] and 8.1 ± 1.7 nM in the series with Pum-HD [16].
UUGUUGUCGAAAAU (ssRNA) [NRE2 minus BoxB]: the figures for the Kd in the series with Pum-HD [14] and with Pum-HD [15] were 1000 ± 20 nM and 1200 ± 80 nM, respectively.
